Source: patent US20180355050A1 (Ablynx, published 2018)
Positions count from the first letter of the chain named. Names and notes keep the numbering of the source.

T1: recombinant human CD40L (human, UniProt P29965 108-261, limits assumed)
T1 construct: Bought soluble recombinant protein (R&D, HEK, 6420-CL/CF); also called hCD40L; human CD40L (HEK, R&D)
T1 sequence: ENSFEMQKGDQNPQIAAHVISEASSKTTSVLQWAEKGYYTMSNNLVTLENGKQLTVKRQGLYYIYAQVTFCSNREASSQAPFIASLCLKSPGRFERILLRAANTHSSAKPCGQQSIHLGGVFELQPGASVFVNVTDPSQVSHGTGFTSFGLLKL

B1: C0100028B02 D101G (VHH, name in Kabat numbering)
VHH: EVQLVESGGGLVQPGGSLRLSCAASGFTLEYYAIGWFRQAPGKEREGVSCISSEGSTSYTDSVKGRFTISRDNAKNTVYLQMNSLKPEDTAVYYCATDPDRGFLGSSCDTQSHQYGYWGQGTLVTVSS
B2: C0100028B02 Y102F (VHH, name in Kabat numbering)
VHH: B1 VHH with G116D, Y117F
B3: C0100028B02 L100aF (VHH, name in Kabat numbering)
VHH: B1 VHH with L104F, G116D
B4: C0100046B03 H100kA (VHH, name in Kabat numbering)
VHH: EVQLVESGGGLVQAGGSLRLSCAASGRTPLNYHMAWFRQAPGKEREFVAAISSLLGSTDYSDSLKDRFTISRDNAKATLYLRMNNLKPEDTAVYYCAARETTHYSTSDRVNEMRAYDYWGQGTLVTVSS
B5: C0100046B03 H100kS (VHH, name in Kabat numbering)
VHH: B4 VHH with A115S
B6: C0100046B03 Y100I (VHH, name in Kabat numbering)
VHH: B4 VHH with Y104I, A115H
B7: C0100046B03 H100kN (VHH, name in Kabat numbering)
VHH: B4 VHH with A115N
notes: single mutation

molecular target: T1, recombinant human CD40L; test: SPR off-rate (ProteOn, 37 °C), immobilised recombinant human CD40L
Description: All off-rates were determined on a ProteOn XPR36 instrument (Bio-Rad Laboratories, Inc.). […] 10-fold diluted periplasmic extracts of anti-CD40L Nanobodies expressing E. coli clones in running buffer ProteOn PBS/Tween (phosphate buffered saline, pH7.4 with 0.005% Tween 20) were flown over the sensor chips. Purified monovalent anti-CD40L Nanobodies were flown over the sensor chips at 100 nM. […] Data obtained was double referenced by Interspot subtraction as well as subtraction of a blank buffer injection. Processed curves were used for off-rate analysis based on the Langmuir dissociation model.
Affinity maturation was performed by screening error prone libraries generated from each parental Nanobody clone. In this approach, amino acid substitutions result from random introduction of mutations in the Nanobody encoding DNA via an error prone PCR. As a consequence, amino acid substitutions are found both in the CDRs and in the Framework Regions (FRs). 5 rounds of phage display selections were performed in solution using decreasing concentrations of recombinant CD40L (from 50 nM to 0.05 pM). Following phage display, individual Nanobodies were sequenced and off-rates were determined by SPR analysis (cf. Example 6.1.3).

fold improved off-rate over parental C0100028B02 [fold] | fold improved off-rate over parental C0100046B03 [fold] | Binder
1.3 | – | B1
1.8 | – | B2
1.3 | – | B3
– | ~2 | B4
– | ~2 | B5
– | 1.5 | B6
– | 2.6 | B7
